Series [1] has as its target T1, thrombin (Homo sapiens, UniProt P00734). Description: Incubation without serine protease in phosphate buffer, then thrombin inhibition test. In kind it is in vitro ADME. Set-up: Brown and cyan colors represent heavy and light chain of thrombin respectively. The conditions noted are these: pH 7.4. How it is done:
Recombinant protein (10 μM) was incubated with or without serine protease 1 μM (thrombin, plasmin, trypsin or factor Xa) in phosphate buffer 50 mM containing NaCl 150 mM and 0.1% of PEG 6000, pH 7.4 for 4, 6, 7 or 18 h at 37° C. Reaction mixtures (20 μl) were split by SDS-PAGE. (A) hydrolysis SDS-PAGE (15%) of recombinant protein by serine proteases following 6 h of incubation. (B) Percentage of thrombin inhibition by recombinant protein following 6 h of incubation with serine protease (see experimental procedures). (C) hydrolysis SDS-PAGE (15%) of recombinant protein by serine proteases following 18 h of incubation. (D) Percentage of thrombin inhibition by recombinant protein following 18 h of incubation with serine protease (see experimental procedures). Numbering of (B) and (D) corresponds to numbering of (A) and (C), respectively, and recombinant protein control is represented by CTRL. […]
Afterwards, it was determined whether serine proteases, like thrombin, plasmin, factor Xa and trypsin, hydrolyze recombinant protein. […] Upon addition of chromogenic substrate S-2238, the hydrolysis thereof by thrombin was monitored in spectrophotometer way. […]

The target in a further series is T2, trypsin (Bos taurus, UniProt P00760).
T2 construct: gene PRSS1
T2 sequence (P00760 24-246): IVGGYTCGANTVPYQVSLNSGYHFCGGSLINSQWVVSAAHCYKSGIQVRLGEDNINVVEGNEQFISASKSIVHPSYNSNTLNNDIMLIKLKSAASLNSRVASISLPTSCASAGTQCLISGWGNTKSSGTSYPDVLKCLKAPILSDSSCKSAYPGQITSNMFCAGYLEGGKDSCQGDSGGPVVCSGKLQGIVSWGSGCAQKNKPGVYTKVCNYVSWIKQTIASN
The experiment in a line: Serine protease inhibition test, trypsin (chromogenic substrate). The class given is biochemical. To be noted: recombinant protein 1, 100, 200 nM; protease 100 pM; 6 h at 37° C. As to the method: (A) Inhibition of serine proteases through recombinant protein. Serine protease (100 pM; thrombin, plasmin, trypsin or factor Xa) was incubated with recombinant protein (1, 100 and 200 nM) in phosphate buffer 50 mM containing NaCl 150 mM and 0.1% of PEG 6000, pH 7.4 for 6 h at 37° C. Following addition of chromogenic substrate corresponding to reaction mixture, hydrolysis thereof was monitored at 405 nm. For factor Xa activity, buffer contained phosphatidylserine and phosphatidylcholine 50 μM. […] (B) Typical curves for hydrolysis of chromogenic substrate S-2238 (15 μM) by thrombin 0.1 nM in absence (trace a) or presence of recombinant protein (trace b, 15 pM; trace c, 30 pM; trace d, 60 pM and trace e, 100 pM) in phosphate buffer 50 mM containing NaCl 150 mM and 0.1% of PEG 6000, pH 7.4 at 37° C. (C) Residual activity of thrombin in presence of increasing concentration of recombinant protein. (D) Dose-response curves for thrombin inhibition by recombinant protein. Percentage of thrombin inhibition was plotted versus the concentration record of recombinant protein. Experimental condition of (C) and (D) is the same as in (B).
The first performed experiment was the test of serine proteases inhibition through recombinant protein. […] Hydrolysis of a chromogenic substrate through serine proteases in the presence and absence of recombinant protein was monitored in a spectrophotometer way. […]

Another series has as its system isolated human plasma. Description: Activated partial thromboplastin time (aPTT) in isolated human plasma. In kind it is biochemical. To be noted: plasma of healthy human volunteers, incubation 3 min. at 37° C. As to the method:
Plasma was obtained from blood of healthy human volunteer and incubated with different concentrations of recombinant protein. APTT, PT and TT were determined like experimental procedure. (A) Activated partial thromboplastin time (B) prothrombin time and (C) thrombin time. Ctrl is related to plasma and Sal is related to plasma plus saline.
Finally, PT, aPTT and TT were assessed in isolated plasma of healthy human volunteers following incubation with recombinant protein for 3 min. at 37° C. […] Maximum test reading for aPTT was achieved following 12 nM, while for PT that was achieved following 6 nM of recombinant protein (FIGS. 11A and 11B).

Series [2] deals with T1, thrombin. Description: Thrombin inhibition, hydrolysis of chromogenic substrate S-2238. In kind it is biochemical. Set-up: Brown and cyan colors represent heavy and light chain of thrombin respectively.
Series [3] in a line: Half-life in plasma ex vivo and in phosphate buffer containing thrombin. The class given is in vitro ADME. To be noted: plasma ex vivo and phosphate buffer 50 mM with 1 μM thrombin, recombinant protein 10 μM, pH 7.4, 37° C.
Where [4] appears, read: from plot of Kobs versus recombinant protein concentration.

B1: GKPQGHPHDALEARSDAVHTAVPKMPKGGHGGFEPIPIDYDERALEARSDAVHTAVPKMPKGGLGGFEPIPIDYDERALEARSDAVHTAVPKMPKGGHGGFEPIPIDYDERALEARSDAVHTAVPKMPKGGHGGFEPIPIDYDERALHALEHHHHHH (protein)
chain: GKPQGHPHDALEARSDAVHTAVPKMPKGGHGGFEPIPIDYDERALEARSDAVHTAVPKMPKGGLGGFEPIPIDYDERALEARSDAVHTAVPKMPKGGHGGFEPIPIDYDERALEARSDAVHTAVPKMPKGGHGGFEPIPIDYDERALHALEHHHHHH
modifications: Sculptin recombinat protein
notes: recombinant His-tagged protein modified from tick sculptin, expressed in E. coli
Take B1: the “thrombin inhibition after incubation without serine protease” value with thrombin [1] (6 h at 37° C., control is 100 pM of fresh recombinant protein) is “inhibited thrombin in similar way to control”. In the series with thrombin [1] (18 h at 37° C., control of fresh recombinant protein), the “thrombin inhibition after incubation without serine protease” value is listed as “inhibited thrombin in similar way to control”. The inhibition of trypsin entry in the series with trypsin is on record as “did not inhibit”. In the series on isolated human plasma, the aPTT result is “prolonged by recombinant protein in concentration-dependent way” and the “concentration at which maximum test reading for aPTT was achieved” value was 12 nM. In the series with thrombin [2] (setting [4]), the Koff was 0.65±0.04×10^−3 s^−1 and the Kon was 4.04±0.03×10^7 M^−1 s^−1. Moreover, the “decrease of residual activity of thrombin” value in the series with thrombin [2] (recombinant protein 1 nM, thrombin 100 pM, 6 h at 37° C., pH 7.4) is “about 97%”. The “Inhibition Type” value with thrombin [2] (this study) was “Competing”. Also, the Half-life in series [3] is on record as 8 h.

These data come from US12187785B2, “Recombinant protein and fragments thereof, method for producing said recombinant protein, synthetic gene and use of sculptin or recombinant protein for preparing a medicament or pharmaceutical composition for the prophylaxis and/or treatment of thromboembolic diseases or as a direct and specific …” (priority 2017, dated 2025).
